Changes are numbered by the printed parent chain. Blank lines part the entries; values can stand above or below the binder they belong to.
Key:
[1] = biological target: T1, human FcγRIIa type R extracellular domain with C-terminal His tag (human, UniProt P12318 34-217); experiment: SPR (Biacore)
T1 construct: extracellular domain; also called FcγRIIaR; FcγRIIa(R)
T1 sequence (looked up): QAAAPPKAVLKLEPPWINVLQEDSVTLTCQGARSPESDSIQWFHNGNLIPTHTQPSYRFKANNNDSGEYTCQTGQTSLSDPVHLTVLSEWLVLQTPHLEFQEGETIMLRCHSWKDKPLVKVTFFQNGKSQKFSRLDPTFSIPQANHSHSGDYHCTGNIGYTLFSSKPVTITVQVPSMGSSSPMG

[2] = biological target: T2, human FcγRIIa type H extracellular domain with C-terminal His tag (human, UniProt P12318 34-217); experiment: SPR (Biacore)
T2 construct: extracellular domain; also called FcγRIIaH; FcγRIIa(H)
T2 sequence (looked up): T1 sequence (looked up) with R134H

[3] = biological target: T3, human FcγRIa extracellular domain with C-terminal His tag (human, UniProt P12314 16-292); experiment: SPR (Biacore)
T3 construct: extracellular domain

[4] = biological target: T4, human FcγRIIb extracellular domain with C-terminal His tag (human, UniProt P31994 43-217); experiment: SPR (Biacore)
T4 construct: extracellular domain
T4 sequence (looked up): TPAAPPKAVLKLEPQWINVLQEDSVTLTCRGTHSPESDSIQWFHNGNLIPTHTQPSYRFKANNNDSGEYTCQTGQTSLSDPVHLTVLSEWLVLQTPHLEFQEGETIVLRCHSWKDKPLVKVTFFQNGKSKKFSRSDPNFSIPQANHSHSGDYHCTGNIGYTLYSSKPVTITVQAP

[5] = biological target: T4, human FcγRIIb extracellular domain with …; experiment: SPR (Biacore), ratio of KDs
[6] = biological target: T1, human FcγRIIa type R extracellular …; experiment: SPR (Biacore), parent IL6R-B3/IL6R-L
[7] = biological target: T4, human FcγRIIb extracellular domain with …; experiment: SPR (Biacore), parent IL6R-B3/IL6R-L

T3 sequence (P12314 16-292): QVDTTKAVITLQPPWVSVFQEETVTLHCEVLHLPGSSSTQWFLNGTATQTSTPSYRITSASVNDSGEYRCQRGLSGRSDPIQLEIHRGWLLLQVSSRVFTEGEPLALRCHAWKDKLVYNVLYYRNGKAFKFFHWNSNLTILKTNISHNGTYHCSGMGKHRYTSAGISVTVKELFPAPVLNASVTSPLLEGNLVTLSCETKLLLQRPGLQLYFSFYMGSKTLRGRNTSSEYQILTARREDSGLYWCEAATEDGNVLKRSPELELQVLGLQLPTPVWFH

Kd [1]: 0.18 µM | Kd [2]: 1.6 µM
B1: IL6R-BP438/IL6R-L (antibody, human IgG1, kappa)
heavy: QVQLQESGPGLVKPSETLSLTCAVSGHSISHDHAWSWVRQPPGEGLEWIGFISYSGITNYNPSLQGRVTISRDNSKNTLYLQMNSLRAEDTAVYYCARSLARTTAMDYWGEGTLVTVSSASTKGPSVFPLAPSSKSTSGGTAALGCLVKDYFPEPVTVSWNSGALTSGVHTFPAVLQSSGLYSLSSVVTVPSSSLGTQTYICNVNHKPSNTKVDKKVEPKSCDKTHTCPPCPAPDLLGDDSVFLFPPKPKDTLMISRTPEVTCVVVDVAEEDGEVKFNWYVDGVEVHNAKTKPREEQYNSTYRVVSVLTVLHQDWLNGKEYKCKVSNKALPRPTEKTISKAKGQPREPQVYTLPPSRDELTKNQVSLTCLVKGFYPSDIAVEWESNGQPENNYKTTPPVLDSDGSFFLYSKLTVDKSRWQQGNVFSCSVMHEALHNHYTQESLSLSP
light: not shown
notes: copies: 2 + 2

Kd [3]: 0.0012 µM | Kd [1]: 0.057 µM | Kd [2]: 0.86 µM | Kd [4]: 0.0017 µM | KD(IIaH)/KD(IIb) [5]: 503 | KD(IIaR)/KD(IIb) [5]: 33.2 | KD(IIaR) parent/KD(IIaR) altered polypeptide [6]: 19.4 | KD(IIb) parent/KD(IIb) altered polypeptide [7]: 1810
B2: IL6R-BP503/IL6R-L (antibody, human IgG1, kappa)
heavy: B1 heavy with V266I, Y298D, A329G, T334I, P398M
light: not shown
notes: copies: 2 + 2

Kd [3]: 0.0012 µM | Kd [1]: 0.049 µM | Kd [2]: 1 µM | Kd [4]: 0.0015 µM | KD(IIaH)/KD(IIb) [5]: 685 | KD(IIaR)/KD(IIb) [5]: 33.8 | KD(IIaR) parent/KD(IIaR) altered polypeptide [6]: 22.3 | KD(IIb) parent/KD(IIb) altered polypeptide [7]: 2120
B3: IL6R-BP499/IL6R-L (antibody, human IgG1, kappa)
heavy: B1 heavy with V266I, Y298D, T334I, P398L
light: not shown
notes: copies: 2 + 2

Kd [3]: 0.0021 µM | Kd [1]: 0.085 µM | Kd [2]: 0.96 µM | Kd [4]: 0.0041 µM | KD(IIaH)/KD(IIb) [5]: 236 | KD(IIaR)/KD(IIb) [5]: 21 | KD(IIaR) parent/KD(IIaR) altered polypeptide [6]: 12.9 | KD(IIb) parent/KD(IIb) altered polypeptide [7]: 764
B4: IL6R-BP497/IL6R-L (antibody, human IgG1, kappa)
heavy: B1 heavy with V266I, A329G, T334I
light: not shown
notes: copies: 2 + 2

Kd [3]: 0.0089 µM | Kd [1]: 0.079 µM | Kd [2]: 1.3 µM | Kd [4]: 0.003 µM | KD(IIaH)/KD(IIb) [5]: 438 | KD(IIaR)/KD(IIb) [5]: 26.6 | KD(IIaR) parent/KD(IIaR) altered polypeptide [6]: 13.9 | KD(IIb) parent/KD(IIb) altered polypeptide [7]: 1040
B5: IL6R-BP536/IL6R-L (antibody, human IgG1, kappa)
heavy: B1 heavy with V266I, A269S, Y298D, A329G, T334I, P398M
light: not shown
notes: copies: 2 + 2

Kd [3]: 0.0012 µM | Kd [1]: 0.039 µM | Kd [2]: 0.84 µM | Kd [4]: 0.0012 µM | KD(IIaH)/KD(IIb) [5]: 730 | KD(IIaR)/KD(IIb) [5]: 33.8 | KD(IIaR) parent/KD(IIaR) altered polypeptide [6]: 28.3 | KD(IIb) parent/KD(IIb) altered polypeptide [7]: 2700
B6: IL6R-BP487/IL6R-L (antibody, human IgG1, kappa)
heavy: B1 heavy with V266I, T334I, P398M
light: not shown
notes: copies: 2 + 2

Kd [3]: 0.006 µM | Kd [1]: 0.18 µM | Kd [2]: 4.3 µM | Kd [4]: 0.0035 µM | KD(IIaH)/KD(IIb) [5]: 1240 | KD(IIaR)/KD(IIb) [5]: 50.6 | KD(IIaR) parent/KD(IIaR) altered polypeptide [6]: 6.3 | KD(IIb) parent/KD(IIb) altered polypeptide [7]: 891
B7: IL6R-BP511/IL6R-L (antibody, human IgG1, kappa)
heavy: B1 heavy with D235E, V266I, E274P, Y298D, T334I
light: not shown
notes: copies: 2 + 2

Kd [3]: 0.096 µM | Kd [1]: 0.21 µM | Kd [2]: 4.6 µM | Kd [4]: 0.0057 µM | KD(IIaH)/KD(IIb) [5]: 803 | KD(IIaR)/KD(IIb) [5]: 36.6 | KD(IIaR) parent/KD(IIaR) altered polypeptide [6]: 5.2 | KD(IIb) parent/KD(IIb) altered polypeptide [7]: 541
B8: IL6R-BP540/IL6R-L (antibody, human IgG1, kappa)
heavy: B1 heavy with D235E, V266I, A269S, E274P, Y298D, T334I
light: not shown
notes: copies: 2 + 2

Kd [1]: 0.33 µM | Kd [2]: 4.9 µM | Kd [4]: 0.009 µM
B9: IL6R-BP558/IL6R-L (antibody, human IgG1, kappa)
heavy: B1 heavy with D235E, V266I, A269G, E274D, T334I
light: not shown
notes: copies: 2 + 2

Kd [3]: 0.025 µM | Kd [1]: 0.34 µM | Kd [2]: 5 µM | Kd [4]: 0.0076 µM | KD(IIaH)/KD(IIb) [5]: 655 | KD(IIaR)/KD(IIb) [5]: 44.2 | KD(IIaR) parent/KD(IIaR) altered polypeptide [6]: 3.3 | KD(IIb) parent/KD(IIb) altered polypeptide [7]: 406
B10: IL6R-BP550/IL6R-L (antibody, human IgG1, kappa)
heavy: B1 heavy with D235E, V266I, A269G, E274D, Y298D, T334I
light: not shown
notes: copies: 2 + 2

Kd [3]: 0.0013 µM | Kd [1]: 0.051 µM | Kd [2]: 0.93 µM | Kd [4]: 0.0017 µM | KD(IIaH)/KD(IIb) [5]: 564 | KD(IIaR)/KD(IIb) [5]: 30.8 | KD(IIaR) parent/KD(IIaR) altered polypeptide [6]: 21.7 | KD(IIb) parent/KD(IIb) altered polypeptide [7]: 1880
B11: IL6R-BP498/IL6R-L (antibody, human IgG1, kappa)
heavy: B1 heavy with V266I, T334I, P398L
light: not shown
notes: copies: 2 + 2

Kd [3]: 0.006 µM | Kd [2]: 4 µM | Kd [4]: 0.0038 µM
B12: IL6R-BP510/IL6R-L (antibody, human IgG1, kappa)
heavy: B1 heavy with D235E, V266I, E274P, T334I
light: not shown
notes: copies: 2 + 2

Source: US20220389118A1 (Chugai, published 2022)
